From US20230390362A1, “USE OF TRIGONAL AGONIST HAVING ACTIVITIES TO ALL OF GLUCAGON, GLP-1, AND GIP RECEPTORS IN TREATMENT OF SEQUELAE FOLLOWING RESPIRATORY INFECTIOUS DISEASES” (HANMI PHARM. CO., LTD., priority 2020, published 2023)
Positions of bridges follow the written chain, without caps; N, C: chain ends. Non-standard residues stand in square brackets, D forms with d. No end group written: not given here. *: point of attachment. Acetyl(2-(4-imidazolyl)) = O=C(Cc1c[nH]cn1)*; Aib = CC(C)(N)C(=O)O

How the values were obtained:
Experiment in all cases: cell-based or functional assay
human GLP-1 receptor = human GLP-1 receptor (human, UniProt P43220 24-463)
human GCG receptor = human GCG receptor (human, UniProt P47871 26-477)
Sequence of human GCG receptor (P47871 26-477): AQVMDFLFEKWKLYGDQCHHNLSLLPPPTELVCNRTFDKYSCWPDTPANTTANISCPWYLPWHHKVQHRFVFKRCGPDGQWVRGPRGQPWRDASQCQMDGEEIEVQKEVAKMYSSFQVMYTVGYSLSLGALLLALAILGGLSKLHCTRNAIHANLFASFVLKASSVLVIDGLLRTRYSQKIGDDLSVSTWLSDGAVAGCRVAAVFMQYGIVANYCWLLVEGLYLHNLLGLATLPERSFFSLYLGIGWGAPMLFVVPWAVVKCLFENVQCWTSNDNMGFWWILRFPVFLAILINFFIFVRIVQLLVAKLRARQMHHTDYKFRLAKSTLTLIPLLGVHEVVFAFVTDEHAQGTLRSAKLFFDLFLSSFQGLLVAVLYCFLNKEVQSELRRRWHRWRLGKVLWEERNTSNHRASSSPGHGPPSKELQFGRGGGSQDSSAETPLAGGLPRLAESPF

human GIP receptor = biological target: T1, human GIP receptor (human, UniProt P48546 22-466)
T1 sequence (looked up): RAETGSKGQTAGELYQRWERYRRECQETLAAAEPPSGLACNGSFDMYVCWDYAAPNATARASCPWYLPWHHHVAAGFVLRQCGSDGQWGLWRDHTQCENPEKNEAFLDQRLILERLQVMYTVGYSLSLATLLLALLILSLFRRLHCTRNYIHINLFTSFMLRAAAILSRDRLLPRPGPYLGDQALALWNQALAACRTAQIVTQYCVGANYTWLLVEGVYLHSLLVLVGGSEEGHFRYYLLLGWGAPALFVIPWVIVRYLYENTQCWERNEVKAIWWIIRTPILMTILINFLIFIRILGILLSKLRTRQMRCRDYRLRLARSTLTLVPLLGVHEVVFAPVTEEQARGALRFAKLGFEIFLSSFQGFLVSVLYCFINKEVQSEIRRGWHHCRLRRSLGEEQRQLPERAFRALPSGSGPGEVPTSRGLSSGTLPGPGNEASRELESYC

B1: trigonal agonist of SEQ ID NO: 93 (peptide)
peptide: {Acetyl(2-(4-imidazolyl))}-[Aib]QGTFTSDYSKYLDEKRQKEFVNWLLAQKC
modifications: bridge 15-19
- In vitro activity relative to native peptide (%), vs. GLP-1 (cAMP EC50) (human GLP-1 receptor): 5.7%
- In vitro activity relative to native peptide (%), vs. Glucagon (cAMP EC50) (human GCG receptor): 0.3%
- In vitro activity relative to native peptide (%), vs. GIP (cAMP EC50) (human GIP receptor): 0.7%

B2: trigonal agonist of SEQ ID NO: 94 (peptide)
peptide: {Acetyl(2-(4-imidazolyl))}-[Aib]QGTFTSDYSIAMDEIHQKDFVNWLLNTKC
modifications: bridge 15-19
- In vitro activity relative to native peptide (%), vs. GLP-1 (cAMP EC50) (human GLP-1 receptor): 0.5%
- In vitro activity relative to native peptide (%), vs. Glucagon (cAMP EC50) (human GCG receptor): < 0.1%
- In vitro activity relative to native peptide (%), vs. GIP (cAMP EC50) (human GIP receptor): < 0.1%

B3: trigonal agonist of SEQ ID NO: 89 (peptide)
peptide: {Acetyl(2-(4-imidazolyl))}-[Aib]QGTFTSDYSKYLDEKRQKEFVQWLLDTKC
modifications: bridge 15-19
- In vitro activity relative to native peptide (%), vs. GLP-1 (cAMP EC50) (human GLP-1 receptor): 7.1%
- In vitro activity relative to native peptide (%), vs. Glucagon (cAMP EC50) (human GCG receptor): 0.7%
- In vitro activity relative to native peptide (%), vs. GIP (cAMP EC50) (human GIP receptor): < 0.1%

B4: trigonal agonist of SEQ ID NO: 102 (peptide)
peptide: Y[Aib]QGTFTSDYSKALDEKAAKDFVNWLLDQHPSSGQPPPSC
modifications: bridge 16-20
- In vitro activity relative to native peptide (%), vs. GLP-1 (cAMP EC50) (human GLP-1 receptor): 23.3%
- In vitro activity relative to native peptide (%), vs. Glucagon (cAMP EC50) (human GCG receptor): 29.5%
- In vitro activity relative to native peptide (%), vs. GIP (cAMP EC50) (human GIP receptor): 58%

B5: trigonal agonist of SEQ ID NO: 100 (peptide)
peptide: Y[Aib]QGTFTSDYSKALDEKAAKEFVQWLLDQHPSSGQPPPSC
modifications: bridge 16-20
- In vitro activity relative to native peptide (%), vs. GLP-1 (cAMP EC50) (human GLP-1 receptor): 42.2%
- In vitro activity relative to native peptide (%), vs. Glucagon (cAMP EC50) (human GCG receptor): 12.7%
- In vitro activity relative to native peptide (%), vs. GIP (cAMP EC50) (human GIP receptor): 118%

B6: trigonal agonist of SEQ ID NO: 86 (peptide)
peptide: {Acetyl(2-(4-imidazolyl))}-[Aib]QGTFTSDYSKYLDEKRQKEFVNWLLAQC
modifications: bridge 15-19
- In vitro activity relative to native peptide (%), vs. GLP-1 (cAMP EC50) (human GLP-1 receptor): 28.4%
- In vitro activity relative to native peptide (%), vs. Glucagon (cAMP EC50) (human GCG receptor): 0.4%
- In vitro activity relative to native peptide (%), vs. GIP (cAMP EC50) (human GIP receptor): 0.2%

B7: trigonal agonist of SEQ ID NO: 98 (peptide)
peptide: Y[Aib]QGTFTSDYSKALDEKAAKEFVNWLLDHHPSSGQPPPSC
modifications: bridge 16-20
- In vitro activity relative to native peptide (%), vs. GLP-1 (cAMP EC50) (human GLP-1 receptor): 28.1%
- In vitro activity relative to native peptide (%), vs. Glucagon (cAMP EC50) (human GCG receptor): 8.2%
- In vitro activity relative to native peptide (%), vs. GIP (cAMP EC50) (human GIP receptor): 47.1%

B8: trigonal agonist of SEQ ID NO: 13 (peptide)
peptide: {Acetyl(2-(4-imidazolyl))}-GEGTFISDYSIQLDEIAVQDFVEWLLAQKPSSGAPPPSHG
- In vitro activity relative to native peptide (%), vs. GLP-1 (cAMP EC50) (human GLP-1 receptor): < 0.1%
- In vitro activity relative to native peptide (%), vs. Glucagon (cAMP EC50) (human GCG receptor): < 0.1%
- In vitro activity relative to native peptide (%), vs. GIP (cAMP EC50) (human GIP receptor): < 0.1%

B9: trigonal agonist of SEQ ID NO: 101 (peptide)
peptide: Y[Aib]QGTFTSDYSKALDEKAAKEFVNWLLDQHPSSGQPPPSC
modifications: bridge 16-20
- In vitro activity relative to native peptide (%), vs. GLP-1 (cAMP EC50) (human GLP-1 receptor): 23.2%
- In vitro activity relative to native peptide (%), vs. Glucagon (cAMP EC50) (human GCG receptor): 13.9%
- In vitro activity relative to native peptide (%), vs. GIP (cAMP EC50) (human GIP receptor): 40.1%

B10: trigonal agonist of SEQ ID NO: 95 (peptide)
peptide: Y[Aib]QGTFTSDYSKYLDEKRAKEFVQWLLCHHPSSGQPPPS
modifications: bridge 16-20
- In vitro activity relative to native peptide (%), vs. GLP-1 (cAMP EC50) (human GLP-1 receptor): 2.1%
- In vitro activity relative to native peptide (%), vs. Glucagon (cAMP EC50) (human GCG receptor): 0.4%
- In vitro activity relative to native peptide (%), vs. GIP (cAMP EC50) (human GIP receptor): < 0.1%

B11: trigonal agonist of SEQ ID NO: 97 (peptide)
peptide: Y[Aib]QGTFTSDYSKYLDEKRAKEFVQWLLDCHPSSGQPPPS
modifications: bridge 16-20
- In vitro activity relative to native peptide (%), vs. GLP-1 (cAMP EC50) (human GLP-1 receptor): 10.5%
- In vitro activity relative to native peptide (%), vs. Glucagon (cAMP EC50) (human GCG receptor): 62.8%
- In vitro activity relative to native peptide (%), vs. GIP (cAMP EC50) (human GIP receptor): 2.6%

B12: trigonal agonist of SEQ ID NO: 92 (peptide)
peptide: {Acetyl(2-(4-imidazolyl))}-[Aib]QGTFTSDYSIAMDEIHQKDFVNWLLAQKC
modifications: bridge 15-19
- In vitro activity relative to native peptide (%), vs. GLP-1 (cAMP EC50) (human GLP-1 receptor): 0.8%
- In vitro activity relative to native peptide (%), vs. Glucagon (cAMP EC50) (human GCG receptor): < 0.1%
- In vitro activity relative to native peptide (%), vs. GIP (cAMP EC50) (human GIP receptor): 0.4%

B13: trigonal agonist of SEQ ID NO: 88 (peptide)
peptide: {Acetyl(2-(4-imidazolyl))}-[Aib]QGTFTSDYSKYLDEKRQKEFVQWLLNTKC
modifications: bridge 15-19
- In vitro activity relative to native peptide (%), vs. GLP-1 (cAMP EC50) (human GLP-1 receptor): 9.6%
- In vitro activity relative to native peptide (%), vs. Glucagon (cAMP EC50) (human GCG receptor): 0.3%
- In vitro activity relative to native peptide (%), vs. GIP (cAMP EC50) (human GIP receptor): < 0.1%

B14: trigonal agonist of SEQ ID NO: 12 (peptide)
peptide: {Acetyl(2-(4-imidazolyl))}-GEGTFISDLSKYMDEQAVQLFVEWLMAGGPSSGAPPPSHG
- In vitro activity relative to native peptide (%), vs. GLP-1 (cAMP EC50) (human GLP-1 receptor): 0.4%
- In vitro activity relative to native peptide (%), vs. Glucagon (cAMP EC50) (human GCG receptor): < 0.1%
- In vitro activity relative to native peptide (%), vs. GIP (cAMP EC50) (human GIP receptor): < 0.1%

B15: trigonal agonist of SEQ ID NO: 10 (peptide)
peptide: H[Aib]QGTFTSDVSKYLDGQAAQEFVAWLLAGGGPSSGAPPPSC
- In vitro activity relative to native peptide (%), vs. GLP-1 (cAMP EC50) (human GLP-1 receptor): 46%
- In vitro activity relative to native peptide (%), vs. Glucagon (cAMP EC50) (human GCG receptor): < 0.1%
- In vitro activity relative to native peptide (%), vs. GIP (cAMP EC50) (human GIP receptor): < 0.1%

B16: trigonal agonist of SEQ ID NO: 90 (peptide)
peptide: {Acetyl(2-(4-imidazolyl))}-[Aib]EGTFTSDYSIAMDEIHQKDFVNWLLAQKC
modifications: bridge 15-19
- In vitro activity relative to native peptide (%), vs. GLP-1 (cAMP EC50) (human GLP-1 receptor): 7.4%
- In vitro activity relative to native peptide (%), vs. Glucagon (cAMP EC50) (human GCG receptor): < 0.1%
- In vitro activity relative to native peptide (%), vs. GIP (cAMP EC50) (human GIP receptor): < 0.1%

B17: trigonal agonist of SEQ ID NO: 99 (peptide)
peptide: Y[Aib]QGTFTSDYSKALDEKAAKDFVNWLLDHHPSSGQPPPSC
modifications: bridge 16-20
- In vitro activity relative to native peptide (%), vs. GLP-1 (cAMP EC50) (human GLP-1 receptor): 20.9%
- In vitro activity relative to native peptide (%), vs. Glucagon (cAMP EC50) (human GCG receptor): 14.9%
- In vitro activity relative to native peptide (%), vs. GIP (cAMP EC50) (human GIP receptor): 57.7%

B18: trigonal agonist of SEQ ID NO: 11 (peptide)
peptide: {Acetyl(2-(4-imidazolyl))}-GEGTFTSDLSKYLDSRRQQLFVQWLKAGGPSSGAPPPSHG
- In vitro activity relative to native peptide (%), vs. GLP-1 (cAMP EC50) (human GLP-1 receptor): 1.4%
- In vitro activity relative to native peptide (%), vs. Glucagon (cAMP EC50) (human GCG receptor): < 0.1%
- In vitro activity relative to native peptide (%), vs. GIP (cAMP EC50) (human GIP receptor): < 0.1%

B19: trigonal agonist of SEQ ID NO: 87 (peptide)
peptide: {Acetyl(2-(4-imidazolyl))}-[Aib]QGTFTSDYSIAMDEIHQKDFVNWLLNTC
modifications: bridge 15-19
- In vitro activity relative to native peptide (%), vs. GLP-1 (cAMP EC50) (human GLP-1 receptor): 0.9%
- In vitro activity relative to native peptide (%), vs. Glucagon (cAMP EC50) (human GCG receptor): < 0.1%
- In vitro activity relative to native peptide (%), vs. GIP (cAMP EC50) (human GIP receptor): < 0.1%

B20: trigonal agonist of SEQ ID NO: 91 (peptide)
peptide: {Acetyl(2-(4-imidazolyl))}-[Aib]EGTFTSDYSIAMDEIHQKDFVDWLLAEKC
modifications: bridge 15-19
- In vitro activity relative to native peptide (%), vs. GLP-1 (cAMP EC50) (human GLP-1 receptor): 31.9%
- In vitro activity relative to native peptide (%), vs. Glucagon (cAMP EC50) (human GCG receptor): 16.8%
- In vitro activity relative to native peptide (%), vs. GIP (cAMP EC50) (human GIP receptor): 0.3%

B21: trigonal agonist of SEQ ID NO: 96 (peptide)
peptide: Y[Aib]QGTFTSDYSKYLDEKRAKEFVQWLLDHCPSSGQPPPS
modifications: bridge 16-20
- In vitro activity relative to native peptide (%), vs. GLP-1 (cAMP EC50) (human GLP-1 receptor): 34.4%
- In vitro activity relative to native peptide (%), vs. Glucagon (cAMP EC50) (human GCG receptor): 195%
- In vitro activity relative to native peptide (%), vs. GIP (cAMP EC50) (human GIP receptor): 5.2%
